Source: US20190030114A1, “ISOFORM-SPECIFIC CALPAIN INHIBITORS, METHODS OF IDENTIFICATION, AND USES THEREOF” (WESTERN UNIVERSITY OF HEALTH SCIENCES, priority 2014, published 2019)

Target: T1, calpain-2 (Homo sapiens, UniProt P17655)
T1 sequence (P17655 1-700): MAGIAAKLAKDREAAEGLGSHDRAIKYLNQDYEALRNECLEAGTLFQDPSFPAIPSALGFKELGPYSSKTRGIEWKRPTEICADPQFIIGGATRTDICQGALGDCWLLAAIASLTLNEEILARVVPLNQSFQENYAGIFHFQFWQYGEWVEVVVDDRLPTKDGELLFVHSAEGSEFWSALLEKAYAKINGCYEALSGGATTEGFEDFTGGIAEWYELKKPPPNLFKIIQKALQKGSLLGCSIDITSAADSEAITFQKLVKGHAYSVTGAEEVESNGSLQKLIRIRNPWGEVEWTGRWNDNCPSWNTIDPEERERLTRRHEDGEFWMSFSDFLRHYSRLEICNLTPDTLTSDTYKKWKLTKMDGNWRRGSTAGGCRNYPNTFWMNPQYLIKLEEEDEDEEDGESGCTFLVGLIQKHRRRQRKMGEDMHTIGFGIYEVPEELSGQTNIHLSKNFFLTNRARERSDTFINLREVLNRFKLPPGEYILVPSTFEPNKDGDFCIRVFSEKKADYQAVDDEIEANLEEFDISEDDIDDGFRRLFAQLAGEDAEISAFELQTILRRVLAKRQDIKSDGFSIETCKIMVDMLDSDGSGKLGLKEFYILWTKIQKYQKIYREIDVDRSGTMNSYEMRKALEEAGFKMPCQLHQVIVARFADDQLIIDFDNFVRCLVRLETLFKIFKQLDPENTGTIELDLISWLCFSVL
T1 sequence (P04632 1-268 partner): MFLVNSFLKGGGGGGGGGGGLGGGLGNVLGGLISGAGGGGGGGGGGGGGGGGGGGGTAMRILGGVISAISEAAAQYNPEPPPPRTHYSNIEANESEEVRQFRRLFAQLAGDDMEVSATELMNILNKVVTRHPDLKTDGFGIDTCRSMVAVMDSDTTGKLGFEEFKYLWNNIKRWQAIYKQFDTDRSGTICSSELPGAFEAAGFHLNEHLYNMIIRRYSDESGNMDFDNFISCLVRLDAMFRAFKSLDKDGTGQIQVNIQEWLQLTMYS
Test: in vitro calpain-2 inhibition, succinic-Leu-Tyr-AMC substrate
Format: biochemical
Settings: selectivity calpain-2 over calpain-1
Procedure: Formula 1, where chiral center 1 is the L-form and chiral center 2 is a racemic mixture of D- and L- in this example was introduced at various concentrations (from 1 nM to 10 μM) into an in vitro mix comprising succinic-Leu-Tyr-AMC and calpain-1 or calpain-2 (Sasaki et al, 1984), and the kinetics of the loss of fluorescence were determined for each of the calpains (Powers et al, 2000). […] Therefore, the assessment of selectivity described herein was different than the prior teaching.
Formula 1A, where chiral center 1 is the S-form and chiral center 2 is the S-form was separated from the S-R-form (Formula 1B) using methods that are well-known methods for separating diastereoisomers. Formula 1A, which is also referred to herein as compound 18A, in this example was introduced at various concentrations into an in vitro mix comprising succinic-Leu-Tyr-AMC and μ-calpain or m-calpain (Sasaki et al, 1984), and the kinetics of the loss of fluorescence were determined for each of the calpains.

- inhibits calpain-2 more than calpain-1 (Ki lower for calpain-2): approximately 100 fold
B1: Stargazin gamma-2: protein involved in AMPA receptor trafficking, calpain-2 specific substrate; cytoplasmic C-terminus (protein, UniProt Q9Y698 1-323, looked up)
Voltage-dependent calcium …: MGLFDRGVQMLLTTVGAFAAFSLMTIAVGTDYWLYSRGVCKTKSVSENETSKKNEEVMTHSGLWRTCCLEGNFKGLCKQIDHFPEDADYEADTAEYFLRAVRASSIFPILSVILLFMGGLCIAASEFYKTRHNIILSAGIFFVSAGLSNIIGIIVYISANAGDPSKSDSKKNSYSYGWSFYFGALSFIIAEMVGVLAVHMFIDRHKQLRATARATDYLQASAITRIPSYRYRYQRRSRSSSRSTEPSHSRDASPVGIKGFNTLPSTEISMYTLSRDPLKAATTPTATYNSDRDNSFLQVHNCIQKENKDSLHSNTANRRTTPV
